Experimental data: patent publication US20230295310A1 (ABCELLERA BIOLOGICS, published 2023)

How the values were obtained:
human CD3e/d = biological target: T1, human CD3e/d (human, UniProt P07766 23-126; P04234 22-105); assay: SPR (Carterra LSA), mAb on chip
T1 construct: Bought soluble protein; also called hCD3e/d; human CD3/ed (Sino CT038-H2508H)
Procedure, shortened: (§1)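 Purified mAbs amine-coupled (EDC/S-NHS) at 10 μg/mL in 10 mM NaOAc pH 4.25 onto an HC-30M chip, with benchmark and negative-control mAbs; analyte flowed over the array. Double-referenced sensorgrams fitted globally to a 1:1 Langmuir model for ka, kd and KD.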

human CD3e/g = biological target: T2, human CD3e/g (human, UniProt P07766 23-126; P09693 23-116); assay: SPR (Carterra LSA), mAb on chip
T2 construct: Bought soluble protein; also called hCD3e/g; human CD3e/g (Acro CDD-C52W4)
T2 sequence (P07766 23-126, chain 1 of 2): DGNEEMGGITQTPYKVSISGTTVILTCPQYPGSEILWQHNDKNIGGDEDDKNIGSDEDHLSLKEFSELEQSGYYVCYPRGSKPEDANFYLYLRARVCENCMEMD
T2 sequence (P09693 23-116, chain 2 of 2): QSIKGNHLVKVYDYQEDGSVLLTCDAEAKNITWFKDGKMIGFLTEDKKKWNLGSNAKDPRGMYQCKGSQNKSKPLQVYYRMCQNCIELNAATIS
Procedure, shortened: as §1

T1 sequence (P07766 23-126, chain 1 of 2): as the sequence (P07766 23-126, chain 1 of 2) above
T1 sequence (P04234 22-105, chain 2 of 2): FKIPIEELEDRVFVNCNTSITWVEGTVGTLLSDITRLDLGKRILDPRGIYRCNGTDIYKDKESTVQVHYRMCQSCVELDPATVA

Row | Binder | Kd (human CD3e/d) | Kd (human CD3e/g)
1 | mAb 237 (antibody, V domains shown, VH and VL only) VH: EVQLLESGGDLVQPGGSLRLTCAASGFTFRSYAMNWVRQAPGKGLEWVSTISSRGDTTNYADSVKGRFTISRDTSKNTLYLQMDNLRADDTAVYYCSKMFSYYYYYMDVWGKGTTVTVSS VL: SYELTQPLSVSVALGQTARITCGGNNIGSKDVHWYQQKPGQAPVLVIYRDSNRPSGIPERFSGSNSGNTATLTISRAQAGDEADYYCQVWDSRTAVFGGGTQLTAL | 25 nM | 5.6 nM
2 | mAb 251 (antibody, V domains shown, VH and VL only) VH: EVQILESGGGLVQPGGSLRLSCVASGFTFRSYVMSWVRRAPGRGLEWVSGISASGGNTYYADSVKGRFTISRDNSKNTLFLQMNGLRAEDTAVYYCAKLFSYYYYFMDVWGKGTTVTVSS VL: SYELTQPLSVSVALGQTARITCGGNNIGSKDVHWYQQKPGQAPVLVIYRDSNRPSGIPERFSGSNSGNTATLTISGAQAGDEADYYCQVWDRRTAVFGGGTQLTAL | 24 nM | 8.1 nM
3 | mAb 264 (antibody, V domains shown, VH and VL only) VH: EVQLLESGGGLVQPGGSLRLSCVASGFTFRSSSMTWVRQAPGKGLEWVSGIRGSGGRTYDAESVKGRFTISRDNSKNTLYLQMNSLRAEDTAEYYCAKLYDYYNDYMDVWGKGTTVTVSS VL: SYELTQPLSVSVALGQTARITCGGNNIGSKNVHWYQQKPGQAPVLVIYRDSNRPSGIPERFSGSNSGNTATLTISRAQAGDEADYYCQVWDSSTAVFGGGTQLTAL | 32 nM | 7.4 nM
4 | mAb 252 (antibody, V domains shown, VH and VL only) VH: EVQILESGGGLVQPGGSLRLSCVASGFTFRSYVMSWVRRAPGRGLEWVSGISTSGGNTYYADSVKGRFTISRDNSKNTLFLQMNGLRAEDTAVYYCAKLFSYYYYFMDVWGKGTTVTVSS VL: SYELTQPLSVSVALGQTARITCGGNNIGSKDVHWYQQKPGQAPVLVIYRDSNRPSGIPERFSGSNSGNTATLTISGAQAGDEADYYCQVWDRRTAVFGGGTQLTAL | 30 nM | 13 nM
5 | mAb 260 (antibody, V domains shown, VH and VL only) VH: EVQLLESGGGLVQPGGSLRLSCVASGFTFRSSSMAWVRQAPGKGLEWVSGIRGSGGRTYDAESVKGRFIISRDTSKNTLYLQMNSLRGEDTAEYFCAKLYDYYNDYMDVWGKGTTVTVSS VL: SYELTQPLSVSVALGQTARITCGGNNIGSKNVHWYQQKPGQAPVLVIYRDSNRPSGIPERFSGSNSGNTATLTISRAQAGDEADYYCQVWDSSTAVFGGGTQLTAL | 28 nM | 4.2 nM
6 | mAb 259 (antibody, V domains shown, VH and VL only) VH: EVLLLESGGGLVQPGGSLRLSCAASGFTFRSSSMTWVRQAPGKGLEWVSGIRGSGGRTYDAESVKGRFTISRDISKNTLYLQMNSVRAEDTAEYYCAKLYDYYNDYMDVWGKGTTVTVSS VL: SYELTQPLSVSVALGQTARITCGGNNIGSKNVHWYQQKPGQAPVLVIYRDSNRPSGIPERFSGSNSGNTATLTISRAQAGDEADYYCQVWDSSTAVFGGGTQLTAL | 63 nM | 13 nM
7 | mAb 238 (antibody, V domains shown, VH and VL only) VH: EVQLLESGGDLVQPGGSLRLTCAASGFTFRSYAMNWVRQAPGKGLEWVSTISSRGDTTNYADSVKGRFTISRDTSKNTLYLQMDNLRADDTAVYYCSKMFSYYYYYMDVWGKGTTVTVSS VL: SYELTQPLSVSVALGQTARITCGGNNIGSKDVHWYQQKPGQAPVLVIYRDSNRPSGIPERFSGSNSGNTATLTISRAQAGDEADYYCQVWDSSTAVFGGGTQLTAL | 59 nM | 17 nM
8 | mAb 68 (antibody, V domains shown, VH and VL only) VH: EVQLVDSGGGLVQPGGSLRLSCSGSGFTFSSYWMSWVRQAPGKGLEWVANIKQDGSQKYYVDSVKGRFTISRDNVKNSLYLQMNSLRVEDTAVYYCARDESSSWYWYFDLWGRGTLVTVSS VL: DIQMTQSPSTLSASVGDRVTLTCRASQNIVKWLAWYQQKPGKAPKLLIYKASSLESGVPSWFSGSGSGTEFTLTINSLQPDDFATYYCQQYYTYSRTFGQGTKVEIK | 46.7 nM | 99.9 nM
9 | mAb 72 (antibody, V domains shown, VH and VL only) VH: EVQLVDSGGGLVQPGGSLRLSCAASGFTFSSYWMSWVRQAPGKGLEWVANIKQDGSEKYYVDSVKGRFTISRDNVKNSLSLEMNSLRAEDTALYYCARDESSSWYWYFDLWGRGTLVTVSS VL: DIQMTQSPSTLSASVGDRVTITCRASQSISKWLAWYQQKPGKAPKLLIYKASSLENGVPSRFSGSGSGTEFTLTISSLQPDDFATYYCQQYSSYSRTFGQGTKVEIK | 606 nM | 394 nM
10 | mAb 229 (antibody, V domains shown, VH and VL only) VH: QEQLVESGGGVVQPGRSLRLSCAASGFTFSSYGMHWVRQAPGKGLEWVAIIYYNGKKKDYADSVKGRFTISRDNSKNTLYLQMNSLRAEDTAVYYCARGLGYNWFDPWGQGTLVTVSS VL: EIVLTQSPDFQSVTPKEKVTITCRASQSIGSSLHWYQQKPDQSPKLLIKYASQSFSGVPSRFSGSGSGTDFTLTINSLEAEDAATYYCHQSSSLPYTFGQGTKLEIK | 22 nM | 47 nM

Other lines, results leading:

Row | Kd (human CD3e/d) | Kd (human CD3e/g) | Binder
11 | 66 nM | 18 nM | mAb 297 (antibody, V domains shown, VH and VL only) VH: EVQLLESGGGLVQPGGSLRLSCAASGFTFSSYAMNWVRQAPGKGLEWVSIISGGRRDDITYYAASVKGRFTISRDNSKNTLYLQMNSLRAEDTAVYYCAKMYNYYYYYIDVWGKGTTVTVSS VL: SYELTQPLSVSVALGQTAKITCGGNNIGSKDVHWYQQKPGQAPVLVIYRDSNRPSGIPERFSGSNSGNTATLTISRAQAGDEADYYCQVWDSNTAVFGGGTQLTAL
12 | 9 nM | 4.1 nM | mAb 263 (antibody, V domains shown, VH and VL only) VH: EVQLLESGGGLVQPGGSLRLSCTPSGITFNNYAMTWVRQAPGKGLEWVSGISVSGGSTYYADSVMGRFTISRDSSKTLYLQMNSLRAEDTAVYYCAKFHSHYYYYMDVWGKGTTVTVSS VL: SYELTQPLSVSVALGQTARITCGGNNIGSKDVHWYQQKPGQAPVLVIYRDSNRPSGIPERFSGSNSGNTATLTISRAQAGDEADYYCQVWDRRTAVFGGGTQLTAL
13 | 26 nM | 10 nM | mAb 262 (antibody, V domains shown, VH and VL only) VH: EVRLLESGGGLVQPGGSLRLSCAASGFTFRSSSMAWVRQDPGKGLEWVTGIRGSGGRTYDADSVKGRFTISRDNSKNTLYLQMNSLRAEDTAEYYCAKLYDYYNDYMDVWGKGTTVTVSS VL: SYELTQPLSVSVALGQTARITCGGNNIGSKNVHWYQQKPGQAPVLVIYRDSNRPSGIPERFSGSNSGNTATLTISRAQAGDEADYYCQVWDSSTAVFGGGTQLTAL
14 | 47 nM | 5.5 nM | mAb 303 (antibody, V domains shown, VH and VL only) VH: EVHLLESGGGLVQPGGSLRLSCAASGFTFSSYAMNWVRQAPGKGLEWISIISGGRRSGITYYAASVKGRFTISRDNSKNTLDLQMNSLRAEDTAVYYCAKMYNYYYYYIDVWGKGTTVTVSS VL: SYELTQPLSVSVALGQTARITCGGNNIGSKDVHWYQQKPGQAPVLVIYRDSNRPSGIPERFSGSNSGNTATLTISRAQAGDEADYYCQVWDSNTAVFGGGTQLTAL
15 | 370 nM | 180 nM | mAb 296 (antibody, V domains shown, VH and VL only) VH: EVQLLESGGGLVQPGGSLRLSCAASGFTFSSYAMSWVRQAPGKGLEWVSAISGSGGTTYYTDSVKGRFTISRDNSKNTLYLQMNSLRAEDTAVYYCAKKYSYYYYYMDVWGKGTTVTVSS VL: SYELTQPLSVSVALGQTARITCGGNNIGSKNVHWYQQKPGQAPVLVIYRDSNRPSGIPERFSGSNSGNTATLTISRAQAGDEADYYCQVWDSSTAVFGGGTQLTAL
16 | 91 nM | 47 nM | mAb 292 (antibody, V domains shown, VH and VL only) VH: EVQLLESGGGLVQPGGSRRLSCAASGFTFSTYAMSWVRQAPGKGLEWVSVINGRGDDTNYADSVKGRFTISRDNSKNILFLQMNSLRAEDTAVYYCAKKYSYYYYYMDVWGKGTTVTVSS VL: SYELTQPLSVSVALGQTARITCGGNNIGSKDVHWYQQKPGQAPVLVIYRDSNRPSGIPERFSGSNSGNTATLTISRAQAGDEADYYCQVWDSRTAVFGGGTQLTAL
17 | 16 nM | 3 nM | mAb 261 (antibody, V domains shown, VH and VL only) VH: EVQLLESGGGFMQPGGSLRLSCAVSGFTFRTSSMAWVRQAPGKGLEWVSGIRGSGGRTYDAESVKGRFTISRDISKNTLYLQMNNLRAEDTAEYYCAKLYDYYNDFMDVWGKGTTVIVSA VL: SYELTQPLSVSVALGQTARITCGGNNIGSKNVHWYQQKPGQAPVLVIYRDSNRPSGIPERFSGSNSGNTATLTISRAQAGDEADYYCQVWDSSTAVFGGGTQLTAL
18 | 15 nM | 9.6 nM | mAb 276 (antibody, V domains shown, VH and VL only) VH: EVQLVESGGGLVQPGGSLRLSCAASGIPFSTYSMNWVRQAPGKGLEWVSYISGSSRTIYYADSVKGRFTISRDNAKKLLFLQMNSLRDEDTAVYYCAREGDYYDSSGWAYWGQGTLVTVSS VL: DIQMTQSPSSLSASVGDRVTITCRASQNIYKYLNWYEQKPGRAPKLLIYTTSNLQSGVPSRFSGSGSGTAFTLIISSLQPEDFATYYCQQSYGSPYTFGQGTKLEIK
19 | 160 nM | 20 nM | mAb 283 (antibody, V domains shown, VH and VL only) VH: QVHLVQSGAEVKKPGASVRVSCKASGYTFTGYYIHWLRQAPGQGLEWLGWINPNSGGTNYSQKFRGRVTMTRDTSISTAYMELSRLRSDDTAVYYCARDKVWEQQLVGGFDYWGQGTLVTVSS VL: not shown
20 | 75 nM | 46 nM | mAb 273 (antibody, V domains shown, VH and VL only) VH: EVQLVESGGGLVQPGESLKLSCTASGFTFSVSAIHWVRQASGKGLEWVGRIRSKANSYATAYVASVKGRFTLSRDDSKNTAYLQMNSLKTEDTAVYYCSSYYFVSGTYYNHWGQGTLVTVSS VL: DIQMTQSPSSLSASVGDRVTITCRASQGIRYDLGWYQQKPGRAPKRLIHSVSSLQSGVPSRFSGSGSGTEFTLTISSLQPEDFATYYCLQHNVNPCTFGQGTKLEIK
